Drawing on article PMC3446948, “Protection against Th17 Cells Differentiation by an Interleukin-23 Receptor Cytokine-Binding Homology Region” (PLoS ONE, 2012), this text covers IC50 and percentage of IL-17a+ cells in mouse CD4+ T cells (flow cytometry) under Th17 polarisation with IL23R-CHR 0, 5 and 25 ug/ml, 72 h; the value given is that for one molecule.

The target of one experiment is T1, Human IL-23 (human, UniProt Q9NPF7 20-189; P29460 23-328).
T1 construct: Interleukin-23 subunit alpha (p19), human; subunit of the bought heterodimeric cytokine; Interleukin-12 subunit beta (p40), human; also called human IL-23 complex; source: bought: R&D
T1 sequence (looked up) 1: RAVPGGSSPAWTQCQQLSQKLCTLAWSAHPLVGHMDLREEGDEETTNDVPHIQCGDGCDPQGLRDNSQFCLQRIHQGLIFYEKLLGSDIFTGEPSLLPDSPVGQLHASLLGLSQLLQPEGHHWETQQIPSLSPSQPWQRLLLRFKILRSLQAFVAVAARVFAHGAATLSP
T1 sequence (looked up) 2: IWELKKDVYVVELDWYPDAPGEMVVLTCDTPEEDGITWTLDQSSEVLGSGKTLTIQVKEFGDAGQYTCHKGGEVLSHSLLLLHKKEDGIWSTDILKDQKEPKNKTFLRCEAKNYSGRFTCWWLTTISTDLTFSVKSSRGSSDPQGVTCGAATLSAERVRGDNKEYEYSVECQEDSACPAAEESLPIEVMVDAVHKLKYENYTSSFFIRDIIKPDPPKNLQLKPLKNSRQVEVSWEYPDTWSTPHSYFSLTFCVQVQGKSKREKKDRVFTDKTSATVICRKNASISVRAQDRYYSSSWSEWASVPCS
In words: ELISA; direct binding ELISA: 10 ng/well human IL-23 coated, various concentrations of IL23R-CHR added, bound IL23R-CHR detected by HRP-labelled IL23R mAb; non-linear regression. The note with it: both partners purified.

Another experiment concerns the target Mouse IL-23 (mouse) (UniProt Q9EQ14).

Mouse IL-23 (mouse), sequence (Q9EQ14 22-196, chain 1 of 2): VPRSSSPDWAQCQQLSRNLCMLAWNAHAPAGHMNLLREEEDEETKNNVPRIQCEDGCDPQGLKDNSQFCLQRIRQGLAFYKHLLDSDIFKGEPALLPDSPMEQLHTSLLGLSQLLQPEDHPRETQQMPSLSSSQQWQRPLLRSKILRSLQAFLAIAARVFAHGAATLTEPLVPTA
Mouse IL-23 (mouse), sequence (P43432 23-335, chain 2 of 2, further chain): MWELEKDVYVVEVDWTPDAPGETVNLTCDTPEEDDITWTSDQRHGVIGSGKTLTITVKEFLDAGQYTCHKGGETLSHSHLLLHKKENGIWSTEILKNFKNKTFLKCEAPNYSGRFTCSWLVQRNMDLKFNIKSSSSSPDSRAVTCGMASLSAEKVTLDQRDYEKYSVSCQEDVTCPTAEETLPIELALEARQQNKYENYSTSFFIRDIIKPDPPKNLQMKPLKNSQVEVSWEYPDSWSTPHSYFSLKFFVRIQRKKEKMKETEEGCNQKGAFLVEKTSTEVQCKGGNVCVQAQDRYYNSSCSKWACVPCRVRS

B1: Human IL-23 receptor cytokine-binding homology region (IL23R-CHR, amino acid residues 124-313) (domain or fragment)
chain: PPDIPDEVTCVIYEYSGNMTCTWNAGKLTYIDTKYVVHVKSLETEEEQQYLTSSYINISTDSLQGGKKYLVWVQAANALGMEESKQLQIHLDDIVIPSAAVISRAETINATVPKTIIYWDSQTTIEKVSCEMRYKATTNQTWNVKEFDTNFTYVQQSEFYLEPNIKYVFQVRCQETGKRYWQPWSSLFFH
modifications: Expressed in E. coli (non-glycosylated). The Trx-His6 tag was removed by enterokinase. A short vector/primer-derived N-terminal remnant remains and is omitted: printed as 'A', while the NcoI primer …
Molecule B1 had an IC50 with Human IL-23 of 90 nM. In the experiment with Mouse IL-23 (mouse), this molecule returned a percentage of IL-17a+ cells in mouse CD4+ T cells (flow cytometry) under Th17 polarisation with IL23R-CHR 0, 5 and 25 ug/ml, 72 h; the value given is that at 25 ug/ml of 4.18%.
